The target in assay [1] is VvPrx3 (C73S) (Vibrio vulnificus). In words: SDS-PAGE under nonreducing conditions (intermolecular disulfide bond), time course; VvPrx3 (C73S) 70 µM reacted with 50 µM H2O2 for 0-60 s; quenched with 10 mM N-ethylmaleimide; band density by ImageJ.
Assay [2] has the same target. Put plainly: SDS-PAGE under nonreducing or reducing conditions (intermolecular disulfide bond); reduced VvPrx3 (C73S) reacted with various concentrations of H2O2 or t-BOOH for 30 min at 298 K in 20 mM Tris-HCl pH 8.0, 150 mM NaCl; stopped with iodoacetamide; boiled with or without 10 mM DTT.

As for VvPrx3 (C73S) (enzyme), in assay [1], the protein linked by a disulfide bond at 30 s (70 µM protein, 50 µM H2O2) is 30 µM. The stoichiometry N – broadly, a count of units in the complex or per binding partner – in assay [2] amounted to 2.

(Values after PMC5755580.)
